Reference: IntAct's records for PubMed 24297912

B1: Basigin (Homo sapiens), P35613-2 (parent)
chain: MAAALFVLLGFALLGTHGASGAAGTVFTTVEDLGSKILLTCSLNDSATEVTGHRWLKGGVVLKEDALPGQKTEFKVDSDDQWGEYSCVFLPEPMGTANIQLHGPPRVKAVKSSEHINEGETAMLVCKSESVPPVTDWAWYKITDSEDKALMNGSESRFFVSSSQGRSELHIENLNMEADPGQYRCNGTSSKGSDQAIITLRVRSHLAALWPFLGIVAEVLVLVTIIFIYEKRRKPEDVLDDDDAGSAPLKSSGQHQNDKGKNVRQRNSS

Variants of: B1
Conditions: with rh5_plaf7 RH5, Q8IFM5
Chain of rh5_plaf7 RH5, Q8IFM5 (Q8IFM5 whole entry): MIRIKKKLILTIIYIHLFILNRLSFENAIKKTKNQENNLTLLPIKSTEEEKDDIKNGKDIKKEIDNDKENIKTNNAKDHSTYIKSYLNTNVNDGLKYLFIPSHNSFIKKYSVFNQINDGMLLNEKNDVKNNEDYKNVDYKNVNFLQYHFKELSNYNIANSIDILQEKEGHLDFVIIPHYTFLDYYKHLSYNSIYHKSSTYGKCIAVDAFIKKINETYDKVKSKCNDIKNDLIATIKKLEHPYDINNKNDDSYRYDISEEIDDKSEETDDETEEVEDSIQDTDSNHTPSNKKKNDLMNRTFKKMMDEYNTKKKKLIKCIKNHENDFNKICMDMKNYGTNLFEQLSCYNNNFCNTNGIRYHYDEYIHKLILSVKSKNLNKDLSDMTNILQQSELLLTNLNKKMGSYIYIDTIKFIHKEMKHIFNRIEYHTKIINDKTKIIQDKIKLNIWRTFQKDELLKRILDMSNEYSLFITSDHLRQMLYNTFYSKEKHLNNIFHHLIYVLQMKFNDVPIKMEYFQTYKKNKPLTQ

Variant	effect of a mutation on the interaction
MAAALFVLLGFALLGTHGASGAAGTVFTTVEDLGSKILLTCSLNDSATEVTGHRWLKGGVVLKEDALPGQKTEFKVDSDDQWGEYSCVFLPEPMGTANIKLHGPPRVKAVKSSEHINEGETAMLVCKSESVPPVTDWAWYKITDSEDKALMNGSESRFFVSSSQGRSELHIENLNMEADPGQYRCNGTSSKGSDQAIITLRVRSHLAALWPFLGIVAEVLVLVTIIFIYEKRRKPEDVLDDDDAGSAPLKSSGQHQNDKGKNVRQRNSS [Q100K]	decreasing interaction strength
MAAALFVLLGFALLGTHGASGAAGTVFTTVEDLGSKILLTCSLNDSATEVTGHRWLKGGVVLKEDALPGQKTEFEVDSDDQWGEYSCVFLPEPMGTANIQLHGPPRVKAVKSSEHINEGETAMLVCKSESVPPVTDWAWYKITDSEDKALMNGSESRFFVSSSQGRSELHIENLNMEADPGQYRCNGTSSKGSDQAIITLRVRSHLAALWPFLGIVAEVLVLVTIIFIYEKRRKPEDVLDDDDAGSAPLKSSGQHQNDKGKNVRQRNSS [K75E]	with no effect
MAAALFVLLGFALLGTHGASGAAGTVFTTVEELGSKILLTCSLNDSATEVTGHRWLKGGVVLKEDALPGQKTEFKVDSDDQWGEYSCVFLPEPMGTANIQLHGPPRVKAVKSSEHINEGETAMLVCKSESVPPVTDWAWYKITDSEDKALMNGSESRFFVSSSQGRSELHIENLNMEADPGQYRCNGTSSKGSDQAIITLRVRSHLAALWPFLGIVAEVLVLVTIIFIYEKRRKPEDVLDDDDAGSAPLKSSGQHQNDKGKNVRQRNSS [D32E]	with no effect
MAAALFVLLGFALLGTHGASGAAGTVLTTVEDLGSKILLTCSLNDSATEVTGHRWLKGGVVLKEDALPGQKTEFKVDSDDQWGEYSCVFLPEPMGTANIQLHGPPRVKAVKSSEHINEGETAMLVCKSESVPPVTDWAWYKITDSEDKALMNGSESRFFVSSSQGRSELHIENLNMEADPGQYRCNGTSSKGSDQAIITLRVRSHLAALWPFLGIVAEVLVLVTIIFIYEKRRKPEDVLDDDDAGSAPLKSSGQHQNDKGKNVRQRNSS [F27L]	decreasing interaction strength
